Here are results for one molecule from publication PMC2763920.

Square brackets hold non-standard residues; d marks the D form. Ends that are not written are not given here. pY = N[C@@H](Cc1ccc(OP(=O)(O)O)cc1)C(=O)O

For experiment [1], the target named is Fyn-SH3-SH2 (GST tag cleaved with thrombin). Kind of experiment: NECEEM.
For experiment [2] the target is unchanged. Kind of experiment: high-speed capillary electrophoresis.
Experiment [3] has the same target. Kind of experiment: fluorescence polarisation. A general note: In fluorescence polarisation assays a small probe gives low polarisation when free and higher when bound to something large.

With fluorescein-EEEEPQ[pY]EEIPIYL [Fluor-Fyn peptide (fluorescein-EEEEPQpYEEIPIYL)], the t1/2 of the complex came to 101 s in experiment [1], 48.4 s in experiment [2] and 53.5 s in experiment [3].
